Measurements: patent US20240382513A1

Target: transferrin receptor (on Hepa 1-6 cells; in tissues of C57BL/6 wild-type mice) (mouse) (UniProt Q62351)
Experiment: cell-based or functional assay

Chain of UniProt Q62351 (Q62351 whole entry): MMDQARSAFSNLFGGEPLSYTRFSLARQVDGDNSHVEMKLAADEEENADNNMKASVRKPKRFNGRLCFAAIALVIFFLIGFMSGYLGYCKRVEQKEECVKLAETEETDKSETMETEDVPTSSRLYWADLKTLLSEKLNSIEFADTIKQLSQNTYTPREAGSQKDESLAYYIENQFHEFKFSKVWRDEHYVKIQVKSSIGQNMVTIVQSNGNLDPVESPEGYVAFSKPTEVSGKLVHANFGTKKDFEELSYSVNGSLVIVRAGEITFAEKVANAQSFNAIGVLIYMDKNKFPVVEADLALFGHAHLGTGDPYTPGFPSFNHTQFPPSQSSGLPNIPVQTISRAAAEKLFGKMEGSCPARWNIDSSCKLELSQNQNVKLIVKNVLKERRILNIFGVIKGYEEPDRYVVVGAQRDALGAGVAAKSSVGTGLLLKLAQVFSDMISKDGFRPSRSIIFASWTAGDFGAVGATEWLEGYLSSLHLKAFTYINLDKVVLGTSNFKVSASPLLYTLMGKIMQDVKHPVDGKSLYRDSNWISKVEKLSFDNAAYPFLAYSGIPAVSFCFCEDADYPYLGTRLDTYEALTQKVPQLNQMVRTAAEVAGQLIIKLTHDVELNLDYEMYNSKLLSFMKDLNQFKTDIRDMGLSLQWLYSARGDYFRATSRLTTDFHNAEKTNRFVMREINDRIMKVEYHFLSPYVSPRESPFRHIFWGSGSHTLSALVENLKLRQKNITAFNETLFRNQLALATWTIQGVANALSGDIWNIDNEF

antiTfR-siHPRT complex: RI7 217 anti-TfR1 Fab (DTX-A-002) covalently linked via a non-cleavable GMBS linker to the HPRT siRNA (siHPRT)
HPRT expression in gastrocnemius of C57BL/6 mice, three days after a single i.v. dose (2 mg/kg of RNA): 31% | HPRT expression in heart of C57BL/6 mice, three days after a single i.v. dose (2 mg/kg of RNA): 30% | decrease in HPRT expression in Hepa 1-6 cells after 72 hour incubation with 100 nM complex: 50%
